In article PMC5515408, “Sequence-specific DNA binding by MYC/MAX to low-affinity non-E-box motifs”:

Legend:
[1] = target: T1, MAX:MAX (p21) (human, UniProt P61244-2 1-151); assay: competition; labeled CME probe; EMSA: 10 ul, 0.5 pmol probe, 80 ng poly(dA-dT):(dA-dT), 375 ng/ul BSA, 15 mM Tris-HCl pH 7.9, 100 mM KCl, 15% glycerol, 0.15 mM EDTA, 0.075% NP-40, 7.5 mM 2-mer; details: protein: recombinant; tags: 6xHis; chain copies: 2; annealed complementary oligos
[2] = target: T2, MYC (p64);MAX (p21), in MYC:MAX (human;human, UniProt P01106-1;P61244-2 1-439;1-151, |); assay: EMSA competition; EMSA: 10 ul, 0.5 pmol probe, 80 ng poly(dA-dT):(dA-dT), 375 ng/ul BSA, 15 mM Tris-HCl pH 7.9, 100 mM KCl, 15% glycerol, 0.15 mM EDTA, 0.075% NP-40, 7.5 mM 2-mer; details: protein: recombinant;recombinant; tags: 6xHis;6xHis; copies: 1;1; label: 32P (Klenow fill-in with [alpha-32P]dGTP) as probe; annealed complementary oligos; probe Klenow-filled
[3] = target: T1, MAX:MAX (p21); assay: as above; details: protein: recombinant; tags: 6xHis; chain copies: 2; label: 32P (Klenow fill-in with [alpha-32P]dGTP) as probe; annealed complementary oligos; probe Klenow-filled
[4] = target: T2, MYC (p64);MAX (p21), in MYC:MAX; assay: EMSA; EMSA: 10 ul, 0.5 pmol probe, 80 ng poly(dA-dT):(dA-dT), 375 ng/ul BSA, 15 mM Tris-HCl pH 7.9, 100 mM KCl, 15% glycerol, 0.15 mM EDTA, 0.075% NP-40, 7.5 mM 2-mer; details: protein: recombinant;recombinant; tags: 6xHis;6xHis; copies: 1;1; label: 32P (Klenow fill-in with [alpha-32P]dGTP) as probe; annealed complementary oligos; probe Klenow-filled
[5] = target: T1, MAX:MAX (p21); assay: as above; details: protein: recombinant; tags: 6xHis; chain copies: 2; label: 32P (Klenow fill-in with [alpha-32P]dGTP) as probe; annealed complementary oligos; probe Klenow-filled
[6] = target: T1, MAX:MAX (p21); assay: competition; labeled CME probe; stronger than NE; EMSA: 10 ul, 0.5 pmol probe, 80 ng poly(dA-dT):(dA-dT), 375 ng/ul BSA, 15 mM Tris-HCl pH 7.9, 100 mM KCl, 15% glycerol, 0.15 mM EDTA, 0.075% NP-40, 7.5 mM 2-mer; details: protein: recombinant; tags: 6xHis; chain copies: 2; annealed complementary oligos

T1 sequence (P61244 other isoform, or with tags, fused parts or gaps): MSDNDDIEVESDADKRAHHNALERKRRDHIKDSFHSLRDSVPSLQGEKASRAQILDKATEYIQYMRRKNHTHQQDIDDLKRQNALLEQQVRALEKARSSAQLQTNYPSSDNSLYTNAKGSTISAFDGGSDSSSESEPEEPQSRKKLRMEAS
T2 sequence (P01106 16-454, chain 1 of 2): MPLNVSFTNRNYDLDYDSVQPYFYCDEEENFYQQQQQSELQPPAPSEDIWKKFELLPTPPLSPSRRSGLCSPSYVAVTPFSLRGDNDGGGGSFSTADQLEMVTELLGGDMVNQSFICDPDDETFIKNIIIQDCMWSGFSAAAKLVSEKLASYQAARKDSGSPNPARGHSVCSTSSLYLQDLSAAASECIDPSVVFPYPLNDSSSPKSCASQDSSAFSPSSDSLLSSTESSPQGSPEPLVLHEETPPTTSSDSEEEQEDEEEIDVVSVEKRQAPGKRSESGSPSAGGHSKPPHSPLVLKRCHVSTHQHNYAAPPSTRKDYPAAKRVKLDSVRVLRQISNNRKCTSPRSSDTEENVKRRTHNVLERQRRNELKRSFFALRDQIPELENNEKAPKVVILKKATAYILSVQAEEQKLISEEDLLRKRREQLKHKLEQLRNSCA
T2 sequence (P61244 other isoform, or with tags, fused parts or gaps |, chain 2 of 2): as the sequence (P61244 other isoform, or with tags, fused parts or gaps) above

B1: NE-V4 (dsDNA)
DNA 1: CCGGCTGAAAGCTTGTATTAATAG
DNA 2: CTATTAATACAAGCTTTCAGCCGG
B1: no binding [1].

B2: NE (dsDNA)
DNA 1: CCGGCTGAAACGTTGTATTAATAG
DNA 2: CTATTAATACAACGTTTCAGCCGG
B2 was tested, and the binding signal [2] was ~20 fold lower affinity than CME and the binding signal [3] was ~33 fold lower affinity than CME.

B3: NE-V2 (dsDNA)
DNA 1: CCGGCTGAGACGTTGTATTAATAG
DNA 2: CTATTAATACAACGTCTCAGCCGG
B3: no binding [1].

B4: Ctrl (dsDNA)
DNA 1: CCGGCTGATTAGCAGTATTAATAG
DNA 2: CTATTAATACTGCTAATCAGCCGG
B4: no binding [4]; no binding [5].

B5: NE-V3 (dsDNA)
DNA 1: CCGGCTGATACGTAGTATTAATAG
DNA 2: CTATTAATACTACGTATCAGCCGG
B5: no binding [1].

B6: NE-V1 (dsDNA)
DNA 1: CCGGCTGATACGTTGTATTAATAG
DNA 2: CTATTAATACAACGTATCAGCCGG
B6: no binding [1].

B7: E-V1 (dsDNA)
DNA 1: CCGGCTGACACGTTGTATTAATAG
DNA 2: CTATTAATACAACGTGTCAGCCGG
B7: binds [6].

B8: CME (dsDNA)
DNA 1: CCGGCTGACACGTGGTATTAATAG
DNA 2: CTATTAATACCACGTGTCAGCCGG
B8: binds [4]; binds [5].
